The chains are these.
B1: Retinoblastoma-related protein 1 (Arabidopsis thaliana (Mouse-ear cress)), Q9LKZ3 (parent)
chain: MEEVQPPVTPPIEPNGKRSEASLLDICEKVLSLDGSTCDEALKLFTETKRILSASMSNIGSGTREEVERFWFAFILYSVKRLSVRKEADGLSVSGDNEFNLCQILRALKLNIVDFFKELPQFVVKAGSVLGELYGADWENRLQAKEVQANFVHLSLLSKYYKRGFREFFLTYDANAEKNSANSSTYLLDSYRFGWLLFLALRNHAFSRFKDLVTCSNGVVSILAILIIHVPCRFRNFSIQDSSRFVKKGDKGVDLVASLCKIYDASEDELRIVIDKANNLVETILKKKPSPASECQTDKLDNIDPDGLTYFEDLLEETSISTSLITLEKDYYDGKGELDERVFINEEDSLLGSGSLSAGAVNITGVKRKIDALSSPARTFISPLSPHKSPAAKTNGISGATKLAATPVSTAMTTAKWLRTVISPLLPKPSPGLEHFLKSCDRDITNDVTRRAHIILEAIFPNSSLGAQCGGGSLQAVDLMDDIWAEQRRLEACKLYYRVLEAMCKAEAQILHANNLNSLLTNERFHRCMLACSAELVLATHKTITMLFPAVLERTGITAFDLSKVIESFIRHEDSLPRELRRHLNSLEERLLESMVWEKGSSMYNSLIVARPSLALEINQLGLLAEPMPSLDAIAALINFSDGANHASSVQKHETCPGQNGGIRSPKRLCTDYRSILVERNSFTSPVKDRLLALGNVKSKMLPPPLQSAFASPTRPNPGGGGETCAETGINIFFTKINKLAAVRINGMVERLQLSQQIRESVYCFFQHVLAQRTSLLFSRHIDQIILCCFYGVAKISQMSLTFREIIYNYRKQPQCKPLVFRSVYVDALQCRRQGRIGPDHVDIITFYNEIFIPAVKPLLVELGPVRNDRAVEANNKPEGQCPGSPKVSVFPSVPDMSPKKVSAVHNVYVSPLRGSKMDALISHSTKSYYACVGESTHAYQSPSKDLSAINNRLNNSSSNRKRTLNFDAEAGMVSDSMVANSLNLQNQNQNQNGSDASSSGGAAPLKTEPTDS
partner: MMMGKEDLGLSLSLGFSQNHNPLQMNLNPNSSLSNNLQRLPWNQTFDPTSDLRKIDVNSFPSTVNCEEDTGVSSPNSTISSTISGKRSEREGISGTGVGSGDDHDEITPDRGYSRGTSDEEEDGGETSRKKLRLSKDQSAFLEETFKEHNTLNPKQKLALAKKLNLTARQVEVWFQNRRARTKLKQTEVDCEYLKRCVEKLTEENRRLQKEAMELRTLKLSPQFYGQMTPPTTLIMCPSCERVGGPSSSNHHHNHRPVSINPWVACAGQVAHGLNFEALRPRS

These results are taken from IntAct's records for PubMed 24302889.

The variants in this assay derive from B1. The following applies: with hat2_arath HAT2, P46601.
For N849F, the “effect of a mutation on the interaction” value is “disrupting interaction strength”.
